Where a chain is given by its changes, count along the chain named.
B1: #5-43: chicken-mouse chimeric anti-FSTL1 antibody clone; variable regions SEQ ID NO: 779 (light), 781 (heavy) (antibody, V domains shown)
VH: AVTLDESGGGLQTPGGGLSLVCKGSGFTFSSFNMFWVRQAPGKGLEWVAGIGKDGGTGYGAAVDGRATISKDSGQSTLRLQLNNLRAEDTGTYYCAKAAGGCSYDWCGAYTGDIDTWGHGTEVIVSS
VL: ASTQPSSVSANPGEAVKITCSGGSGSYYGWYQQKSPGSAPVTVIYNNNQRPSDIPSRFSGSKSGSTATLTITGVQAEDEAVYFCGGYDSSTGHGGIFGAGTTLTVL
modifications: mouse constant regions
B2: #6-55: chicken-mouse chimeric anti-FSTL1 antibody clone; variable regions SEQ ID NO: 783 (light), 785 (heavy) (antibody, V domains shown)
VH: AVTLDESGGGLQTPGGALSLVCKGSGFTFTSVTMQWVRQAPGKGLEWVASVCSGSSTYYAPAVKGRATISRDNGQSTVRLQLSNLRPEDTGTYYCAKIAGRARWSCTSAAYNIDAWGHGTEVIVSS
VL: ASTQPSSVSAIPGETVKITCSGGGNNYGWYQQRSPGSAPVTVIYYNDNRPSNIPSRFSGSTSGSTSTLTITGVQADDEAIYYCGSWDSNTDSGIFGAGTTLTVL
modifications: mouse constant regions
B3: #7-34: chicken-mouse chimeric anti-FSTL1 antibody clone; variable regions SEQ ID NO: 787 (light), 789 (heavy) (antibody, V domains shown)
VH: AVTLDESGGGLQTPGGGLSLVCKASGFTFSSVTMQWVRQAPGKGLEWVASICSGSSTYYGPAVKGRATISRDNGQNTVRLQLNNLRAEDTATYYCAKIVGRGRWSCTSAAYNIDAWGHGTEVIVSS
VL: B2 VL with I11N, R33K, D47N, D76E, I80V, W86Y, D87E, S88G, N89S
modifications: mouse constant regions
B4: #5-3: chicken-mouse chimeric anti-FSTL1 antibody clone; variable regions SEQ ID NO: 767 (light), 769 (heavy) (antibody, V domains shown)
VH: B1 VH with G17A, T28S, G56V, T57P, G58K, S73N, L78M, Y94F, A109I, T111A
VL: ASTQPSSVSANPGETVKITCSGGSGYYYGWYQQKSPGSVPVTVIYNNNNRPSDIPSRFSGSKSGSTGTLTITGVRAEDEAVYYCGGYDNSGTGIFGAGTTLTVL
modifications: mouse constant regions
B5: #8-4: chicken-mouse chimeric anti-FSTL1 antibody clone; variable regions SEQ ID NO: 795 (light), 797 (heavy) (antibody, V domains shown)
VH: B1 VH with F29L, I51V, G58A, K71R, L78V, Y94F, D105S, T111V, I114L, T116A
VL: B4 VL with T3S, V39A, N48D, R50K, R75Q, A76V, Y83F
modifications: mouse constant regions
B6: #8-1: chicken-mouse chimeric anti-FSTL1 antibody clone; variable regions SEQ ID NO: 791 (light), 793 (heavy) (antibody, V domains shown)
VH: B1 VH with G17A, G56V, T57P, G58K, S73N, L78M, Y94F, A109I, T111A
VL: B1 VL with T91S
modifications: mouse constant regions
B7: #5-8: chicken-mouse chimeric anti-FSTL1 antibody clone; variable regions SEQ ID NO: 771 (light), 773 (heavy) (antibody, V domains shown)
VH: B1 VH with G56V, T57P, G58K, A61T, S73N, L78M, Y94F, A109I
VL: B1 VL
modifications: mouse constant regions
B8: #5-2: chicken-mouse chimeric anti-FSTL1 antibody clone; variable regions SEQ ID NO: 763 (light), 765 (heavy) (antibody, V domains shown)
VH: B1 VH with I51V, S73N, D105G, A109S, T111V, T116A
VL: B1 VL
modifications: mouse constant regions
B9: #8-7: chicken-mouse chimeric anti-FSTL1 antibody clone; variable regions SEQ ID NO: 799 (light), 801 (heavy) (antibody, V domains shown)
VH: B1 VH with G56V, T57P, G58K, S73N, Y94F, A109I, T111A
VL: B1 VL
modifications: mouse constant regions

test system: mouse bone marrow cells; experiment: Inhibition of induction of mesenchymal stem cells (MSC) by FSTL1 in mouse bone marrow cells (Examples 4, 6, 8, 12); type: cell-based; conditions: Example 4: 50 ng/mL FSTL1, 10 μg/mL antibody, 11 days; vs control anti-DNP antibody
Experimental: It is known that when bone marrow cells are stimulated with FSTL1, mesenchymal stem cells (MSCs) having pluripotency or self-proliferative capacity grow (Cancer Research 73: 6185, 2013). Thus, 2×10^7 cells/well of bone marrow cells collected from the thigh bone of a C57BL/6 mouse were suspended in 3 mL/well of RPMI1640 (GIBCO/Thermo Fisher Scientific Inc., Cat. No. C11875500BT) medium containing 2% fetal bovine serum, supplemented with 50 ng/mL (final concentration) of FSTL1 (R&D Systems, Inc. Cat#1694-FN-050) and 10 μg/mL of the anti-FSTL1 antibody (#5-2, […], #5-8, #5-10, #5-43, #6-55, or #7-34) or its isotype mouse IgG (anti-DNP antibody) as a control antibody “Control”, and cultured under stimulation (6-well plate). 11 days thereafter, the number of cells was counted while the cells were stained with a PE-labeled anti-ALCAM antibody (eBioscience, Cat. No. 12-1661-82) and a PE-labeled anti-PDGFRA antibody (eBioscience, Cat#12-1401-81) in order to examine the expression of MSC markers, and the contents of ALCAM-positive cells and PDGFR-positive cells were analyzed by flow cytometry using FACScan (Becton, Dickinson and Company, Code. BECTON-DICKINSON-FACSCAN) to calculate the number of each positive cell per culture.
Mouse bone marrow cells prepared in the same way as in Example 4 were supplemented with 50 ng/mL (final concentration) of FSTL1 and 10 μg/mL of the anti-FSTL1 antibody (#5-2, #5-3, #5-8, #5-10, #5-43, #6-55, or #7-34) or a control antibody anti-DNP antibody and cultured under stimulation. 11 days thereafter, the number of cells was counted while the cells were stained with a PE-Cy5-labeled anti-CD45 antibody (BD Pharmingen/Becton, Dickinson and Company, Cat. No. 555484), and the content of CD45− negative cells reported to generally contain MSCs at a high rate was analyzed by flow cytometry using FACScan to calculate the percentage and number of MSCs per culture (FIG. 99A).
Mouse bone marrow cells prepared in the same way as in Example 4 were supplemented with 20 ng/mL (final concentration) of FSTL1 and 10 μg/mL of the anti-FSTL1 antibody (#5-2, #5-3, #5-8, #5-10, #5-43, #6-55, #8-1, #8-4, #8-7, and #8-8) or a control antibody anti-DNP antibody and cultured under stimulation. 8 days thereafter, the number of cells was counted while the cells were stained with a PE-Cy5-labeled anti-CD45 antibody, and the content of CD45− negative cells was analyzed by flow cytometry using FACScan to calculate the percentage and number of MSCs per culture (FIG. 100A).
Mouse bone marrow cells prepared in the same way as in Example 4 were supplemented with 20 ng/mL (final concentration) of FSTL1 and 10 μg/mL of the anti-FSTL1 antibody (#5-2, #5-8, #6-55, […], #8-1, #8-4, #8-7, or #8-8) or a control antibody anti-DNP antibody and cultured under stimulation. 8 days thereafter, the number of cells was counted while the cells were stained with a PE-Cy5-labeled anti-CD45 antibody, and the content of CD45− negative cells was analyzed by flow cytometry using FACScan to calculate the percentage and number of MSCs per culture (FIG. 101).

| Molecule | inhibitory activity against the expansion of ALCAM-positive cells and PDGFRA-positive cells by FSTL1 |
| --- | --- |
| B1 | slightly strong tendency of inhibitory activity |
| B2 | slightly strong tendency of inhibitory activity |
| B3 | slightly strong tendency of inhibitory activity |

same assay, conditions: Example 6: 50 ng/mL FSTL1, 10 μg/mL antibody, 11 days; FIG. 99A

| Molecule | inhibitory activity against the expansion of CD45-negative cells by FSTL1 |
| --- | --- |
| B1 | higher inhibitory activity and substantially completely inhibited the action of FSTL1 |
| B4 | higher inhibitory activity and substantially completely inhibited the action of FSTL1 |
| B3 | higher inhibitory activity and substantially completely inhibited the action of FSTL1 |

same assay, conditions: Example 8: 20 ng/mL FSTL1, 10 μg/mL antibody, 8 days; FIG. 100A

| Molecule | inhibitory activity against the expansion of CD45-negative cells by FSTL1 |
| --- | --- |
| B1 | exhibited inhibitory activity |
| B5 | exhibited inhibitory activity |
| B6 | exhibited inhibitory activity |
| B7 | exhibited inhibitory activity |
| B2 | exhibited inhibitory activity |

same assay, conditions: Example 12: 20 ng/mL FSTL1, 10 μg/mL antibody, 8 days; FIG. 101

| Molecule | inhibitory activity against the expansion of CD45-negative cells by FSTL1 |
| --- | --- |
| B8 | higher inhibitory activity was confirmed in the order of #7-34, #5-2, #6-55, and #8-7 |
| B9 | higher inhibitory activity was confirmed in the order of #7-34, #5-2, #6-55, and #8-7 |
| B2 | higher inhibitory activity was confirmed in the order of #7-34, #5-2, #6-55, and #8-7 |
| B3 | higher inhibitory activity was confirmed in the order of #7-34, #5-2, #6-55, and #8-7 |

Source: patent publication US20180021429A1, “ANTICANCER AGENTS OR ANTIMETASTATIC AGENTS USING FSTL1 AND COMBINATION DRUG THEREOF” (PHARMA FOODS INTERNATIONAL CO., LTD., priority 2015, published 2018)
